Experimental data: patent US20240182561A1 (Regeneron, published 2024)

Columns and labels:
[1] = target: T1, human CACNG1 expressed on cells (human, UniProt Q06432 1-222); assay: cell-based or functional assay
[2] = target: T2, mouse CACNG1 expressed on cells (mouse, UniProt O70578 1-223); assay: cell-based or functional assay
T2 sequence (looked up): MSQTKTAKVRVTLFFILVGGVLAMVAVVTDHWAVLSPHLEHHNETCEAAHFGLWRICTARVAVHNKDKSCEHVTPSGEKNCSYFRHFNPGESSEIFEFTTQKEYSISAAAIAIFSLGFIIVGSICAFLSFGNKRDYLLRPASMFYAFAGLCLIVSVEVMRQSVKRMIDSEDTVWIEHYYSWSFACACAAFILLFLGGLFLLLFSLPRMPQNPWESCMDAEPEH

[3] = target: T1, human CACNG1 expressed on cells; assay: imaging cell binding, HEK293/hCACNG1
Protocol: (§1) HuSKM were seeded in collagen-coated 96-well plates (Greiner Bio-One #655956) at 8,500 cells/well and grown for 24 hours. The growth media was changed to MyoTonic Differentiation Media (Cook Myosite Cat #MD-5555) and replaced every 2 days. Myotubes were assayed after 6 days of differentiation. C2C12 mouse myoblasts were maintained in DMEM with 10% FBS and 1% penicillin-streptomycin supplement and grown in a 37° C. incubator with 5% CO₂. C2C12 cells were seeded in collagen-coated 96-well plates (Greiner Bio-One #655956) at 10,000 cells/well for the cell binding assay and 5,000 cells/well for the cell killing assay. After 24 hours, growth media was replaced with differentiation media (DMEM with 2% horse serum) and placed in a 37° C. incubator with 7.5% CO₂. C2C12 myotubes were assayed after 3 days of differentiation. HEK293/hCACNG1, HEK293/mCACNG1, and HEK293 cells were seeded at 10,000 cells (cell binding assay) or 2,000 (cell killing assay) per well in 96-well black collagen coated plates (Greiner Bio-One, cat #655956) in complete growth media and grown overnight at 37° C. in 5% CO₂.
(§2) Relative binding of anti-CACNG1 antibodies was assessed across the entire panel of cell lines via imaging analysis. […] After one wash with antibody dilution buffer, samples were fixed in CytoFix (BD Biosciences, Cat #554655) diluted 1:1 in PBS and supplemented with a 1:2000 dilution of Hoechst 33342 (Thermo, Cat #H1399) for 20 minutes on ice. Images were acquired with a 10× objective on the Opera Phenix (Perkin Elmer) and relative fluorescence units (RFU) was determined using Harmony software (Perkin Elmer).

[4] = target: T2, mouse CACNG1 expressed on cells; assay: imaging cell binding, HEK293/mCACNG1
Protocol: as §1, §2

[5] = target: T1, human CACNG1 expressed on cells; assay: imaging cell binding, HuSKM myotubes
Protocol: as §1, §2

[6] = target: T3, nanodisc embedded human CACNG1 expressed with a C-terminal PADRE-Flag-His tag (human, UniProt Q06432 1-222); assay: SPR, anti-His-captured nanodisc, 25 C
T3 construct: Captured on an anti-His Biacore surface; also called human CACNG1 nanodisc; CACNG1 nanodisc; not shown: C-terminal tag
Protocol: Equilibrium dissociation constants (KD values) for nanodisc embedded human CACNG1 expressed with a C-terminal […] tag (human CACNG1 nanodisc; concentration 0.82 mg/ml) binding to purified anti-CACNG1 antibodies were determined using a real-time surface plasmon resonance biosensor technology with a Biacore T200 instrument. The CM5 Biacore sensor surface was derivatized by amine coupling with a monoclonal mouse anti-His antibody (Cytiva; Marlborough, MA). All Biacore binding studies were performed in a buffer composed of 0.01M HEPES, 0.15M NaCl, 1 mM CaCl₂, 0.5 mM MgCl₂, pH 7.4 (HBS-N++ running buffer). Different concentrations of anti-CACNG1 antibodies (ranging from 300 nM to 12 nM in 5-fold serial dilutions) prepared in HBS-N++ running buffer were injected over the captured human CACNG1 nanodisc at a flow rate of 30 μL/minute. Antibody association was monitored for 2 minutes while dissociation was monitored in HBS-N++ running buffer for 5 minutes. At the end of each cycle, the human CACNG1 nanodisc capture surface was regenerated using three 10 second injections of 10 mM Gly pH1.5. All binding kinetics experiments were performed at 25° C.
The specific SPR-Biacore sensorgrams were obtained by a double referencing procedure. The double referencing was performed by first subtracting the signal of each injection over a reference surface (anti-His) from the signal over the experimental surface (anti-His captured human CACNG1 nanodisc) thereby removing contributions from refractive index changes. In addition, running buffer injections were performed to allow subtraction of the signal changes resulting from the dissociation of captured antibodies from the coupled anti-His surface. Kinetic association (kₐ) and dissociation ([…]) rate constants were determined by fitting the real-time sensorgrams to a 1:1 binding model using Scrubber v2.0c curve fitting software. Binding dissociation equilibrium constants (KD) and dissociative half-lives (t %) were calculated from the kinetic rate constants as: […]

[7] = target: T2, mouse CACNG1 expressed on cells; assay: imaging cell binding, C2C12 mouse myotubes
Protocol: as §1, §2

T3 sequence (Q06432 whole entry): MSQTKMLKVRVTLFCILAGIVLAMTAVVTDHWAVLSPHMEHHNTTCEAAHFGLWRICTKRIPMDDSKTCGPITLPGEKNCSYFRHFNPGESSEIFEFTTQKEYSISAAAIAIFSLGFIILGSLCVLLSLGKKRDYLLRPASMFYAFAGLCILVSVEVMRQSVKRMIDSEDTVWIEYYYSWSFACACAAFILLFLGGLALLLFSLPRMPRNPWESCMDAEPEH
T1 sequence (Q06432 whole entry): as above

B1: REGN10715 (antibody, human IgG4 S228P, kappa)
heavy: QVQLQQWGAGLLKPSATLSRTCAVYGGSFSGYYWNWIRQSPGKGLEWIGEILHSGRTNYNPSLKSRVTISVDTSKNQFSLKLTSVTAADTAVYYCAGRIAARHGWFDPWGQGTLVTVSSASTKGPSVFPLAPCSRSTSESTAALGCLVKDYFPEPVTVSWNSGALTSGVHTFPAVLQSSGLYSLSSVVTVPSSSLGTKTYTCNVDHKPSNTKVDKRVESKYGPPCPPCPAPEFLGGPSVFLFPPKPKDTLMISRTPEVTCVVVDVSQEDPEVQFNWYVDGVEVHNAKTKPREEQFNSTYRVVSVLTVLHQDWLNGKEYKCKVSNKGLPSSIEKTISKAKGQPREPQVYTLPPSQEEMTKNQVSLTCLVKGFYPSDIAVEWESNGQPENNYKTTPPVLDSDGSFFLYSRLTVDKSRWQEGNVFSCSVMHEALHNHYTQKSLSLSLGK
light: DIQMTQSPSSVSTSVGDRVTISCRASQDIRKWLAWYQQKPGKAPKLLIYATSSLQSGVPSRFSGSGSGTDFTLTISSLQPEDFATYFCQQANSFPFTFGQGTKLEIKRTVAAPSVFIFPPSDEQLKSGTASVVCLLNNFYPREAKVQWKVDNALQSGNSQESVTEQDSKDSTYSLSSTLTLSKADYEKHKVYACEVTHQGLSSPVTKSFNRGEC
notes: hIgG4
% KILL, indirect cell killing, HEK293/hCACNG1 [1]: 96.4%
% KILL, indirect cell killing, HuSKM [1]: 99.6%
EC50/IC50, indirect cell killing, HEK293/hCACNG1 [1]: 0.629 pM
EC50/IC50, indirect cell killing, HuSKM [1]: 9.7 pM
% KILL, indirect cell killing, C2C12 [2]: 99.8%
% KILL, indirect cell killing, HEK293/mCACNG1 [2]: 96.1%
EC50/IC50, indirect cell killing, C2C12 [2]: 0.00469 nM
EC50/IC50, indirect cell killing, HEK293/mCACNG1 [2]: 0.187 pM
EC50 [3]: 2.7 nM
S/N [3]: 91.3 fold
EC50 [4]: 0.26 nM
S/N [4]: 69.4 fold
EC50 [5]: 0.2 nM
S/N [5]: 1060 fold
Kd [6]: 1.98 nM
koff [6]: 0.000301 s⁻¹
kon [6]: 152000 M⁻¹ s⁻¹
mAb bound at 300 nM [6]: 31 RU
t1/2 [6]: 38.4 min
EC50 [7]: 2.3 nM
S/N [7]: 8.4 fold

B2: REGN7660 (antibody, human IgG4 S228P, kappa, V domains shown)
VH: EVQLVESGGGLVQPGGSLKLSCTASGLTLSDSAMHWVRQASGKGLEWVGRIRNKANRYATEYAASVKGRFTISRDDSKNTAYLQMNSLKTEDTAVYYCTRNWKIFLFDYWGQGTLVTVSS
VL: EIVLTQSPGTLTLSPGERATLSCRASQSVGSKYLAWFQQKRGQAPRLLIYGASSRTSGIPDRISGSGSGTDFTLTISRLEPEDFAVYYCQQYGSSPWTFGQGTKVEIKR
notes: hIgG4
% KILL, indirect cell killing, C2C12 [2]: 99.8%
% KILL, indirect cell killing, HEK293/mCACNG1 [2]: 92.3%
EC50/IC50, indirect cell killing, C2C12 [2]: 0.0237 nM
EC50/IC50, indirect cell killing, HEK293/mCACNG1 [2]: 13.4 pM
EC50 [4]: > 100 nM
S/N [4]: 7.2 fold
Kd [6]: 12.6 nM
koff [6]: 0.0243 s⁻¹
kon [6]: 1.93e+06 M⁻¹ s⁻¹
mAb bound at 300 nM [6]: 23 RU
t1/2 [6]: 0.5 min
S/N [7]: 1 fold

B3: REGN10728 (antibody, human IgG4 S228P, kappa)
heavy: QVQLVESGGGVVQPGRSLRLSCTASGITFRNYGMHWVRQAPGKGLEWVAVMWYDGSNKYYADSVKGRFTISGDNSKVYLQMNSLRAEDTAVYYCARRGTIRTAAPFDYWGQGTLVTVSSASTKGPSVFPLAPCSRSTSESTAALGCLVKDYFPEPVTVSWNSGALTSGVHTFPAVLQSSGLYSLSSVVTVPSSSLGTKTYTCNVDHKPSNTKVDKRVESKYGPPCPPCPAPGGGGPSVFLFPPKPKDTLMISRTPEVTCVVVDVSQEDPEVQFNWYVDGVEVHNAKTKPREEQFNSTYRVVSVLTVLHQDWLNGKEYKCKVSNKGLPSSIEKTISKAKGQPREPQVYTLPPSQEEMTKNQVSLTCLVKGFYPSDIAVEWESNGQPENNYKTTPPVLDSDGSFFLYSRLTVDKSRWQEGNVFSCSVMHEALHNHYTQKSLSLSLGK
light: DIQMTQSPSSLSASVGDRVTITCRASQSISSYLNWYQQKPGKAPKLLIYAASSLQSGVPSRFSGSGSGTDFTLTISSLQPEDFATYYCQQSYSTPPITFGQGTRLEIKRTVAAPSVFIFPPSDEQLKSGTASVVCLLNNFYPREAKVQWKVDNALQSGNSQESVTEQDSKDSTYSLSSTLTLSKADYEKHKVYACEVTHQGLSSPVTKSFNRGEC
notes: also called H2aM31929N/REGN10728; CACNG1 hIgG4 uber stealth antibody
% KILL, indirect cell killing, HEK293/hCACNG1 [1]: 95.8%
% KILL, indirect cell killing, HuSKM [1]: 99.3%
EC50/IC50, indirect cell killing, HEK293/hCACNG1 [1]: 0.519 pM
EC50/IC50, indirect cell killing, HuSKM [1]: 38.1 pM
% KILL, indirect cell killing, C2C12 [2]: 1.6%
% KILL, indirect cell killing, HEK293/mCACNG1 [2]: 5.1%
EC50/IC50, indirect cell killing, C2C12 [2]: > 10 nM
EC50/IC50, indirect cell killing, HEK293/mCACNG1 [2]: > 1000 pM
EC50 [3]: 2.4 nM
S/N [3]: 138 fold
S/N [4]: 0.8 fold
EC50 [5]: 1.3 nM
S/N [5]: 467 fold
S/N [7]: 1.8 fold
binding result [7]: no binding (tested: 100 nM highest tested)

B4: H2aM31941N (antibody, mouse IgG1, kappa, V domains shown)
VH: QVQLVQSGAEVKKPGASVKVSCKASGYAFTTYGITWVRQAPGQGLEWMGWISAYNGNTNYAEKVQGRFTMTTDTSTNTAYMELRSLRSDDTAVYFCARKGHYGSGTYYNPFGFDFWGQGTMVTVSS
VL: EIMLMQSPGTLSLSPGERATLSCRASQSVSSSYLAWYQQKPGQAPRLLIYGASSRATDIPDRFSGSGSGTDFTLTISRLEPEDFAVYFCQQYYGSPWTFGQGTKVEIKR
notes: Both names are treated as one molecule; also called H1M31941N; lot H1M31941N-L1
% KILL, indirect cell killing, HEK293/hCACNG1 [1]: 95.4%
% KILL, indirect cell killing, HuSKM [1]: 91.2%
EC50/IC50, indirect cell killing, HEK293/hCACNG1 [1]: 2.17 pM
EC50/IC50, indirect cell killing, HuSKM [1]: 112 pM
% KILL, indirect cell killing, C2C12 [2]: 0.4%
% KILL, indirect cell killing, HEK293/mCACNG1 [2]: 4.9%
EC50/IC50, indirect cell killing, C2C12 [2]: > 10 nM
EC50/IC50, indirect cell killing, HEK293/mCACNG1 [2]: > 1000 pM
EC50 [3]: 0.21 nM
S/N [3]: 51.2 fold
S/N [4]: 1.4 fold
EC50 [5]: 0.13 nM
S/N [5]: 559 fold
Kd [6]: 1.19 nM
koff [6]: 0.000406 s⁻¹
kon [6]: 342000 M⁻¹ s⁻¹
mAb bound at 300 nM [6]: 19 RU
t1/2 [6]: 28.4 min
S/N [7]: 1.2 fold
binding result [7]: no binding (tested: 100 nM highest tested)

B5: H2aM31944N (antibody, mouse IgG2a, kappa, V domains shown)
VH: QVQLVESGGGVVQPGRSLRLSCEASGITFRNYGMHWVRQAPGKGLEWVAVMWYDGSNKYYADSVKGRFTISRDNSKNTVYLQMNSLRAEDTAVYYCARRGHIATAAPFDYWGQGTLVTVSS
VL: DIQMTQSPSSLSASVGDRVTISCRASQSISSYLNWYQQKPGKAPKVLMYAASSLQSGVPSRFSGSGSGTDFTLTISSLQPEDFATYYCQQSYSTPPITFGQGTRLEIKR
notes: mIgG2a; also called CACNG1 mIgG2a antibody
% KILL, indirect cell killing, HEK293/hCACNG1 [1]: 95.7%
% KILL, indirect cell killing, HuSKM [1]: 98.6%
EC50/IC50, indirect cell killing, HEK293/hCACNG1 [1]: 0.356 pM
EC50/IC50, indirect cell killing, HuSKM [1]: 11.6 pM
% KILL, indirect cell killing, C2C12 [2]: 0%
% KILL, indirect cell killing, HEK293/mCACNG1 [2]: 4.3%
EC50/IC50, indirect cell killing, C2C12 [2]: > 10 nM
EC50/IC50, indirect cell killing, HEK293/mCACNG1 [2]: > 1000 pM
EC50 [3]: 3.3 nM
S/N [3]: 93.4 fold
EC50 [4]: > 100 nM
S/N [4]: 2.2 fold
EC50 [5]: 0.48 nM
S/N [5]: 321 fold
Kd [6]: 17.1 nM
koff [6]: 0.00395 s⁻¹
kon [6]: 231000 M⁻¹ s⁻¹
mAb bound at 300 nM [6]: 16 RU
t1/2 [6]: 2.9 min
S/N [7]: 0.7 fold

B6: REGN10713 (antibody, human IgG4 S228P, lambda)
heavy: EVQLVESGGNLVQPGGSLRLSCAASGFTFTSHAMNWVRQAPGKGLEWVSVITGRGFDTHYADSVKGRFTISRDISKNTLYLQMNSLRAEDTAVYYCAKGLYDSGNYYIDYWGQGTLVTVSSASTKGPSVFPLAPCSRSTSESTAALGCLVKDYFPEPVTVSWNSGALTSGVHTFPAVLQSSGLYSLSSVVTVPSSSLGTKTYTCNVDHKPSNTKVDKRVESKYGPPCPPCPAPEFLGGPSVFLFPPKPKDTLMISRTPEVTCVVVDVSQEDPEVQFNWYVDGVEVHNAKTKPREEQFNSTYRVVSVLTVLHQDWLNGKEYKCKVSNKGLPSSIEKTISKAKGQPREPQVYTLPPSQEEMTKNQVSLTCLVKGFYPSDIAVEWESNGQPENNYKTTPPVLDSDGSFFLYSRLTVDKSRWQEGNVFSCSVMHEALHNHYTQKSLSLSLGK
light: QSVLTQPPSVSAAPGQKVTISCSGSSSNIGNNYVSWYQQLPGTAPKLLIYDNNKRPSGIPDRFSGSKSGTSATLGITGLQTGDEADYYCGTWDLSLSFNWVFGGGTKLTVLGQPKAAPSVTLFPPSSEELQANKATLVCLISDFYPGAVTVAWKADSSPVKAGVETTTPSKQSNNKYAASSYLSLTPEQWKSHRSYSCQVTHEGSTVEKTVAPTECS
notes: hIgG4
% KILL, indirect cell killing, C2C12 [2]: 0%
% KILL, indirect cell killing, HEK293/mCACNG1 [2]: 2.4%
EC50/IC50, indirect cell killing, C2C12 [2]: > 10 nM
EC50/IC50, indirect cell killing, HEK293/mCACNG1 [2]: > 1000 pM
EC50 [4]: > 100 nM
S/N [4]: 2.7 fold
Kd [6]: 0.635 nM
koff [6]: 4.72e-05 s⁻¹
kon [6]: 74200 M⁻¹ s⁻¹
mAb bound at 300 nM [6]: 53 RU
t1/2 [6]: 245 min
S/N [7]: 2 fold
